Residue numbers refer to the chain shown, from its start.
B1: B5716 (antibody, V domains shown)
VH: QIQLVQSGAEVKKPGASVKVSCKASGYTFTDYYINWVRQAPGQGLEWMGWIYPGSANTKYSEKVKGRVTMTVDTSITTAYMELSRLRSDDTAVYYCTRNDPLITAVVPDYWGQGTTVTVSS
VL: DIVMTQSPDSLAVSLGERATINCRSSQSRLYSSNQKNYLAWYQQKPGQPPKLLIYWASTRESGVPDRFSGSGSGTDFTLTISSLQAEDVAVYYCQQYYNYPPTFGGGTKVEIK
notes: Humanized
B2: B5711 (antibody, V domains shown)
VH: QIQLQQSGPELVKPGASVKISCKASGDTFTDYYINWVKQKPGQGLEWIGWIYTGSGNTKYNEKFKGKTTLTVDTSSSTAYMQLNSLTSEDTAVYFCARYNPLITAVVPDYWGQGTTLTVSS
VL: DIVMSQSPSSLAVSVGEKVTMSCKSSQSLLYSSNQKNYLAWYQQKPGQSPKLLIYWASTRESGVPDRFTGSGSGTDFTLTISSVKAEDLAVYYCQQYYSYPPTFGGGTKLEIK
notes: Expressed in 293F cells, purified by protein G
B3: B5712 (antibody, V domains shown)
VH: QVQLVQSGAEVKKPGASVKVSCKASGDTFTDYYINWVRQAPGQGLEWMGWIYTGSGNTKYNEKFKGRVTMTRDTSISTAYMELSRLRSDDTAVYYCARYNPLITAVVPDYWGQGTTVTVSS
VL: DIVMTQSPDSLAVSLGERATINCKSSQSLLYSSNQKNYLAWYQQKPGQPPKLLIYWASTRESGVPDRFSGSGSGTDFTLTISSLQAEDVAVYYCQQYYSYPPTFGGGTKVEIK
notes: Humanized; also called HSP206A-CDRG
B4: B5713 (antibody, V domains shown)
VH: B3 VH with V2I, R72V
VL: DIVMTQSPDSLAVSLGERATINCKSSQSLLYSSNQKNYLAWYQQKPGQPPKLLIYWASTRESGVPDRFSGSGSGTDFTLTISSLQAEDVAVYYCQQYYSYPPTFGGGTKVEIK
notes: Humanized
B5: B5715 (antibody, V domains shown)
VH: B1 VH with I2V, V72R, T77S, T97A
VL: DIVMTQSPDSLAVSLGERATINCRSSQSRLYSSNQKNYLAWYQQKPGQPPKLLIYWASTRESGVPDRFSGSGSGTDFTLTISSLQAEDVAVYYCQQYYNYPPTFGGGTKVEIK
notes: Humanized; also called HSP206B-CDRG
B6: B5714 (antibody, V domains shown)
VH: QIQLQQSGPELVKPGASVKISCKASGYTFTDYYINWVKQKPGQGPEWIGWIYPGSANTKYSEKVKGKATLTVDTSSTTAYMQLSSLTSDDTAVYFCTRNDPLITAVVPDYWGQGTTLTVSS
VL: DIVMSQSPSSLAVSVGEKVTMSCRSSQSRLYSSNQKNYLAWYQQKPGQSPKLLIYWASTRESGVPDRFTGSGSGTDFTLTISSVKAEDLAVYYCQQYYNYPPTFGGGTKLEIK
B7: G08 antibody (antibody, V domains shown)
VH: B2 VH
VL: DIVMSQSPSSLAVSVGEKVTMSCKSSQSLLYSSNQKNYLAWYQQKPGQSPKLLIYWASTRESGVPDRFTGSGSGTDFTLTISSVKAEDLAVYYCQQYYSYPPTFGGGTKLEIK
notes: Mouse variable domains from a Fab phage library of immunized mice; also called G08 clone; mAb G08
B8: H06 antibody (antibody, V domains shown)
VH: B6 VH
VL: B6 VL
notes: Mouse variable domains from a Fab phage library of immunized mice; also called H06 clone; mAb H06

biological target: T1, cyno CD47-His protein (cynomolgus, UniProt A0A2K5X523 19-139); assay: ELISA on cyno CD47-His protein, OD 450nm [Cont'd) B]
T1 construct: also called cynomolgus CD47; not shown: His tag

In order of falling EC50:
1. B3  10.2 ng/mL
2. B1  9.79 ng/mL
3. B4  9.5 ng/mL
4. B5  9.23 ng/mL
5. B6  8.45 ng/mL
6. B2  7.95 ng/mL

biological target: T2, human CD47-His protein (human, UniProt Q08722 19-139); assay: SPR (Biacore T200) full kinetics, antibody captured on protein A chip, serial dilution of human CD47-his injected
T2 construct: Recombinant human CD47 with His tag; also called human CD47-his tag protein; CD47 antigen; not shown: His tag
Description: The binding of the humanized antibodies to recombinant CD47 protein (human CD47-his tag) was tested by BIACORE™ using a capture method. B5712 and B5715 mAbs were captured using protein A chip. A serial dilution of human CD47-his tag protein was injected over captured antibody for 120s at a flow rate of […]. The antigen was allowed to dissociate for 600s. All the experiments were carried out on a Biacore T200.

T2 sequence (Q08722 19-139 limits assumed): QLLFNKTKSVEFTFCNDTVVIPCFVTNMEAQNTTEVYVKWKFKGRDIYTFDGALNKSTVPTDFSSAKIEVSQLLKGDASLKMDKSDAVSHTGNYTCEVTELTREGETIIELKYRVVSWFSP

In order of rising Kd:
1. B5  560 pM
2. B3  847 pM

In order of rising koff:
1. B5  0.000287 s⁻¹
2. B3  0.00128 s⁻¹

In order of rising kon:
1. B5  513000 M⁻¹ s⁻¹
2. B3  1.51e+06 M⁻¹ s⁻¹

biological target: T2, human CD47-His protein; assay: ELISA, purified antibody titrated on CD47-His protein, OD 450nm

In order of falling EC50:
1. B7  5.93 ng/mL
2. B8  5.39 ng/mL

biological target: T2, human CD47-His protein; assay: SPR (Biacore) affinity ranking, antibody captured on protein A chip, 5 nM human CD47-his injected
Description: (§1) To explore the binding kinetics of the humanized antibody, this example performed the affinity ranking using biacore. B5711, B5712, B5713, B5714, B5715 and B5716 mAbs were captured using protein A chip. 5 nM of human CD47-his tag protein was injected over captured antibodies for 120s at a flow rate of 30 μL/min. The antigen was allowed to dissociate for 130s.

In order of rising Kd:
1. B1  547 pM
2. B2  819 pM
3. B5  979 pM
4. B4  1000 pM
5. B3  1280 pM
6. B6  1540 pM

In order of falling koff:
1. B1  0.00452 s⁻¹
2. B2  0.00383 s⁻¹
3. B4  0.00353 s⁻¹
4. B6  0.00291 s⁻¹
5. B3  0.00276 s⁻¹
6. B5  0.00234 s⁻¹

In order of rising kon:
1. B6  1.89e+06 M⁻¹ s⁻¹
2. B3  2.15e+06 M⁻¹ s⁻¹
3. B5  2.39e+06 M⁻¹ s⁻¹
4. B4  3.53e+06 M⁻¹ s⁻¹
5. B1  8.26e+06 M⁻¹ s⁻¹

biological target: T3, Tag2-CD47 (UniProt Q08722 19-139); assay: HTRF blocking assay, ratio 665 nm/615 nm; blocked ligand: Tag1-SIRP-α binding to Tag2-CD47
T3 construct: Tagged reagent of the HTRF assay; also called CD47 (HTRF assay)
Description: (§2) To evaluate the activities of humanized anti-huCD47 mAbs on blocking SIRP-α interaction, the HTRF assay was employed. The interaction between Tag1-SIRP-α and Tag2-CD47 was detected by using anti-Tag1-Terbium (HTRF donor) and anti-Tag2-XL665 (HTRF acceptor). When the donor and acceptor antibodies were brought into close proximity due to SIRP-α and CD47 binding, excitation of the donor antibody triggers fluorescent resonance energy transfer (FRET) towards the acceptor antibody, which in turn emitted specifically at 665 nm. This specific signal is directly proportional to the extent of CD47/SIRP-α interaction. Thus, a molecule blocking CD47/SIRP-α interaction would cause a reduction in HTRF signal.
Anti-CD47 antibodies B5711, B5712, B5713, B5714, B5715, and B5716 were evaluated on their activities in blocking the interaction of CD47 and SIRP-α.

T3 sequence (Q08722 19-139): as the sequence (Q08722 19-139 limits assumed) above

In order of rising IC50:
1. B1  138 pM
2. B6  140 pM
3. B3  160 pM
4. B5  160 pM
5. B2  170 pM
6. B4  210 pM

biological target: T2, human CD47-His protein; assay: SPR (Biacore) affinity ranking, antibody captured on protein A chip, 5 nM human CD47-his injected; affinity ranking, single 5 nM injection of human CD47-his, 130s dissociation
Description: as §1

Work on B2 yielded a kon of 4.67e+06 M⁻¹ s⁻¹.

biological target: T3, Tag2-CD47; assay: HTRF blocking assay, ratio 665 nm/615 nm; blocked ligand: Tag1-SIRP-α binding to Tag2-CD47; remark: another data set of the same source
Description: as §2, with “To further” for “To”, “functions” for “activities”, “the mouse” for “humanized”, “triggered” for “triggers”, “emits” for “emitted”
G08 and H06 antibodies were evaluated for their activity to blocking the interaction of CD47 and SIRP-α.

In order of falling IC50:
1. B7  270 pM
2. B8  210 pM

biological target: T2, human CD47-His protein; assay: ELISA on human CD47-His protein, OD 450nm

In order of falling EC50:
1. B1  11.5 ng/mL
2. B4  7.6 ng/mL
3. B5  7.09 ng/mL
4. B6  6.49 ng/mL
5. B3  5.35 ng/mL
6. B2  4.96 ng/mL

From US20220127357A1 (LEPU BIOPHARMA, published 2022)
